Reference: US20090011997A1 (THERATECHNOLOGIES, published 2009)
Bridge positions count the residues as written; N and C are the ends. Square brackets hold non-standard residues; d marks the D form. Ends that are not written are not given here. Nle = CCCC[C@H](N)C(=O)O

B1: bifunctional hormone of SEQ ID NO: 35 (peptide)
peptide: Ac-H[dF]RWGKP[Nle]CFGGR[Nle]DRIGAQSGLGCNSFRY-NH2
modifications: disulfide 9-25
SMILES: CCCC[C@@H]1NC(=O)[C@H](CCCNC(=N)N)NC(=O)CNC(=O)CNC(=O)[C@H](Cc2ccccc2)NC(=O)[C@@H](NC(=O)[C@H](CCCC)NC(=O)[C@@H]2CCCN2C(=O)[C@H](CCCCN)NC(=O)CNC(=O)[C@H](Cc2c[nH]c3ccccc23)NC(=O)[C@H](CCCNC(=N)N)NC(=O)[C@@H](Cc2ccccc2)NC(=O)[C@H](Cc2c[nH]cn2)NC(C)=O)CSSC[C@@H](C(=O)N[C@@H](CC(N)=O)C(=O)N[C@@H](CO)C(=O)N[C@@H](Cc2ccccc2)C(=O)N[C@@H](CCCNC(=N)N)C(=O)N[C@@H](Cc2ccc(O)cc2)C(N)=O)NC(=O)CNC(=O)[C@H](CC(C)C)NC(=O)CNC(=O)[C@H](CO)NC(=O)[C@H](CCC(N)=O)NC(=O)[C@H](C)NC(=O)CNC(=O)[C@H]([C@@H](C)CC)NC(=O)[C@H](CCCNC(=N)N)NC(=O)[C@H](CC(=O)O)NC1=O
B2: bifunctional hormone of SEQ ID NO: 29 (peptide)
peptide: [Nle]EHFGGR[Nle]DRISKYRH[dF]RW-NH2
modifications: lactam 2-13; N-terminus assumed
SMILES: CCCC[C@@H]1NC(=O)[C@H](CCCNC(=N)N)NC(=O)CNC(=O)CNC(=O)[C@H](Cc2ccccc2)NC(=O)[C@H](Cc2c[nH]cn2)NC(=O)[C@@H](NC(=O)[C@@H](N)CCCC)CCC(=O)NCCCC[C@@H](C(=O)N[C@@H](Cc2ccc(O)cc2)C(=O)N[C@@H](CCCNC(=N)N)C(=O)N[C@@H](Cc2c[nH]cn2)C(=O)N[C@H](Cc2ccccc2)C(=O)N[C@@H](CCCNC(=N)N)C(=O)N[C@@H](Cc2c[nH]c3ccccc23)C(N)=O)NC(=O)[C@H](CO)NC(=O)[C@H]([C@@H](C)CC)NC(=O)[C@H](CCCNC(=N)N)NC(=O)[C@H](CC(=O)O)NC1=O
B3: bifunctional hormone of SEQ ID NO: 44 (peptide)
peptide: Ac-H[dF]RWGKPMCFGGRMGAQSGLGCNSFRY-NH2
modifications: disulfide 9-22
SMILES: CSCC[C@@H]1NC(=O)[C@H](CCCNC(=N)N)NC(=O)CNC(=O)CNC(=O)[C@H](Cc2ccccc2)NC(=O)[C@@H](NC(=O)[C@H](CCSC)NC(=O)[C@@H]2CCCN2C(=O)[C@H](CCCCN)NC(=O)CNC(=O)[C@H](Cc2c[nH]c3ccccc23)NC(=O)[C@H](CCCNC(=N)N)NC(=O)[C@@H](Cc2ccccc2)NC(=O)[C@H](Cc2c[nH]cn2)NC(C)=O)CSSC[C@@H](C(=O)N[C@@H](CC(N)=O)C(=O)N[C@@H](CO)C(=O)N[C@@H](Cc2ccccc2)C(=O)N[C@@H](CCCNC(=N)N)C(=O)N[C@@H](Cc2ccc(O)cc2)C(N)=O)NC(=O)CNC(=O)[C@H](CC(C)C)NC(=O)CNC(=O)[C@H](CO)NC(=O)[C@H](CCC(N)=O)NC(=O)[C@H](C)NC(=O)CNC1=O
B4: bifunctional hormone of SEQ ID NO: 33 (peptide)
peptide: Ac-H[dF]RWGKPMCFGGRMDRIGAQSGLGCNSFRY-NH2
modifications: disulfide 9-25
SMILES: CC[C@H](C)[C@@H]1NC(=O)[C@H](CCCNC(=N)N)NC(=O)[C@H](CC(=O)O)NC(=O)[C@H](CCSC)NC(=O)[C@H](CCCNC(=N)N)NC(=O)CNC(=O)CNC(=O)[C@H](Cc2ccccc2)NC(=O)[C@@H](NC(=O)[C@H](CCSC)NC(=O)[C@@H]2CCCN2C(=O)[C@H](CCCCN)NC(=O)CNC(=O)[C@H](Cc2c[nH]c3ccccc23)NC(=O)[C@H](CCCNC(=N)N)NC(=O)[C@@H](Cc2ccccc2)NC(=O)[C@H](Cc2c[nH]cn2)NC(C)=O)CSSC[C@@H](C(=O)N[C@@H](CC(N)=O)C(=O)N[C@@H](CO)C(=O)N[C@@H](Cc2ccccc2)C(=O)N[C@@H](CCCNC(=N)N)C(=O)N[C@@H](Cc2ccc(O)cc2)C(N)=O)NC(=O)CNC(=O)[C@H](CC(C)C)NC(=O)CNC(=O)[C@H](CO)NC(=O)[C@H](CCC(N)=O)NC(=O)[C@H](C)NC(=O)CNC1=O
B5: bifunctional hormone of SEQ ID NO: 34 (peptide)
peptide: Ac-H[dF]RWGKP[Nle]CHFGGR[Nle]DRISCYR-NH2
modifications: disulfide 9-20
SMILES: CCCC[C@@H]1NC(=O)[C@H](CCCNC(=N)N)NC(=O)CNC(=O)CNC(=O)[C@H](Cc2ccccc2)NC(=O)[C@H](Cc2c[nH]cn2)NC(=O)[C@@H](NC(=O)[C@H](CCCC)NC(=O)[C@@H]2CCCN2C(=O)[C@H](CCCCN)NC(=O)CNC(=O)[C@H](Cc2c[nH]c3ccccc23)NC(=O)[C@H](CCCNC(=N)N)NC(=O)[C@@H](Cc2ccccc2)NC(=O)[C@H](Cc2c[nH]cn2)NC(C)=O)CSSC[C@@H](C(=O)N[C@@H](Cc2ccc(O)cc2)C(=O)N[C@@H](CCCNC(=N)N)C(N)=O)NC(=O)[C@H](CO)NC(=O)[C@H]([C@@H](C)CC)NC(=O)[C@H](CCCNC(=N)N)NC(=O)[C@H](CC(=O)O)NC1=O
B6: bifunctional hormone of SEQ ID NO: 41 (peptide)
peptide: Ac-EHFRWGRRSSCFGGRMDRIGAQSGLGCNSFRY-NH2
modifications: disulfide 11-27
SMILES: CC[C@H](C)[C@@H]1NC(=O)[C@H](CCCNC(=N)N)NC(=O)[C@H](CC(=O)O)NC(=O)[C@H](CCSC)NC(=O)[C@H](CCCNC(=N)N)NC(=O)CNC(=O)CNC(=O)[C@H](Cc2ccccc2)NC(=O)[C@@H](NC(=O)[C@H](CO)NC(=O)[C@H](CO)NC(=O)[C@H](CCCNC(=N)N)NC(=O)[C@H](CCCNC(=N)N)NC(=O)CNC(=O)[C@H](Cc2c[nH]c3ccccc23)NC(=O)[C@H](CCCNC(=N)N)NC(=O)[C@H](Cc2ccccc2)NC(=O)[C@H](Cc2c[nH]cn2)NC(=O)[C@H](CCC(=O)O)NC(C)=O)CSSC[C@@H](C(=O)N[C@@H](CC(N)=O)C(=O)N[C@@H](CO)C(=O)N[C@@H](Cc2ccccc2)C(=O)N[C@@H](CCCNC(=N)N)C(=O)N[C@@H](Cc2ccc(O)cc2)C(N)=O)NC(=O)CNC(=O)[C@H](CC(C)C)NC(=O)CNC(=O)[C@H](CO)NC(=O)[C@H](CCC(N)=O)NC(=O)[C@H](C)NC(=O)CNC1=O
B7: native ANP (SEQ ID NO: 2) (peptide)
peptide: SLRRSSCFGGRMDRIGAQSGLGCNSFRY
modifications: disulfide 7-23; also: C-terminal amide in Table IV, not in Table I
B8: bifunctional hormone of SEQ ID NO: 43 (peptide)
peptide: Ac-HRWGKPMCFGGRMDRIGAQSGLGCNSFRY-NH2
modifications: disulfide 8-24
SMILES: CC[C@H](C)[C@@H]1NC(=O)[C@H](CCCNC(=N)N)NC(=O)[C@H](CC(=O)O)NC(=O)[C@H](CCSC)NC(=O)[C@H](CCCNC(=N)N)NC(=O)CNC(=O)CNC(=O)[C@H](Cc2ccccc2)NC(=O)[C@@H](NC(=O)[C@H](CCSC)NC(=O)[C@@H]2CCCN2C(=O)[C@H](CCCCN)NC(=O)CNC(=O)[C@H](Cc2c[nH]c3ccccc23)NC(=O)[C@H](CCCNC(=N)N)NC(=O)[C@H](Cc2c[nH]cn2)NC(C)=O)CSSC[C@@H](C(=O)N[C@@H](CC(N)=O)C(=O)N[C@@H](CO)C(=O)N[C@@H](Cc2ccccc2)C(=O)N[C@@H](CCCNC(=N)N)C(=O)N[C@@H](Cc2ccc(O)cc2)C(N)=O)NC(=O)CNC(=O)[C@H](CC(C)C)NC(=O)CNC(=O)[C@H](CO)NC(=O)[C@H](CCC(N)=O)NC(=O)[C@H](C)NC(=O)CNC1=O
B9: bifunctional hormone of SEQ ID NO: 46 (peptide)
peptide: Ac-H[dF]RWGPKPVQGSGCPGRKMDRISSSSGLGCKVLRRH-NH2
modifications: disulfide 14-30
SMILES: CC[C@H](C)[C@@H]1NC(=O)[C@H](CCCNC(=N)N)NC(=O)[C@H](CC(=O)O)NC(=O)[C@H](CCSC)NC(=O)[C@H](CCCCN)NC(=O)[C@H](CCCNC(=N)N)NC(=O)CNC(=O)[C@@H]2CCCN2C(=O)[C@@H](NC(=O)CNC(=O)[C@H](CO)NC(=O)CNC(=O)[C@H](CCC(N)=O)NC(=O)[C@@H](NC(=O)[C@@H]2CCCN2C(=O)[C@H](CCCCN)NC(=O)[C@@H]2CCCN2C(=O)CNC(=O)[C@H](Cc2c[nH]c3ccccc23)NC(=O)[C@H](CCCNC(=N)N)NC(=O)[C@@H](Cc2ccccc2)NC(=O)[C@H](Cc2c[nH]cn2)NC(C)=O)C(C)C)CSSC[C@@H](C(=O)N[C@@H](CCCCN)C(=O)N[C@H](C(=O)N[C@@H](CC(C)C)C(=O)N[C@@H](CCCNC(=N)N)C(=O)N[C@@H](CCCNC(=N)N)C(=O)N[C@@H](Cc2c[nH]cn2)C(N)=O)C(C)C)NC(=O)CNC(=O)[C@H](CC(C)C)NC(=O)CNC(=O)[C@H](CO)NC(=O)[C@H](CO)NC(=O)[C@H](CO)NC(=O)[C@H](CO)NC1=O
B10: bifunctional hormone of SEQ ID NO: 45 (peptide)
peptide: Ac-H[dF]RWSPKMVQGSGCPGRKMDRISSSSGLGCKVLRRH-NH2
modifications: disulfide 14-30
SMILES: CC[C@H](C)[C@@H]1NC(=O)[C@H](CCCNC(=N)N)NC(=O)[C@H](CC(=O)O)NC(=O)[C@H](CCSC)NC(=O)[C@H](CCCCN)NC(=O)[C@H](CCCNC(=N)N)NC(=O)CNC(=O)[C@@H]2CCCN2C(=O)[C@@H](NC(=O)CNC(=O)[C@H](CO)NC(=O)CNC(=O)[C@H](CCC(N)=O)NC(=O)[C@@H](NC(=O)[C@H](CCSC)NC(=O)[C@H](CCCCN)NC(=O)[C@@H]2CCCN2C(=O)[C@H](CO)NC(=O)[C@H](Cc2c[nH]c3ccccc23)NC(=O)[C@H](CCCNC(=N)N)NC(=O)[C@@H](Cc2ccccc2)NC(=O)[C@H](Cc2c[nH]cn2)NC(C)=O)C(C)C)CSSC[C@@H](C(=O)N[C@@H](CCCCN)C(=O)N[C@H](C(=O)N[C@@H](CC(C)C)C(=O)N[C@@H](CCCNC(=N)N)C(=O)N[C@@H](CCCNC(=N)N)C(=O)N[C@@H](Cc2c[nH]cn2)C(N)=O)C(C)C)NC(=O)CNC(=O)[C@H](CC(C)C)NC(=O)CNC(=O)[C@H](CO)NC(=O)[C@H](CO)NC(=O)[C@H](CO)NC(=O)[C@H](CO)NC1=O

Key:
[1] = molecular target: MCR1 receptor (on MCR1 receptor-expressing B16-F1 cells) (UniProt Q01727 1-315); assay: cell-based or functional assay
Sequence of MCR1 receptor (on MCR1 receptor-expressing B16-F1 cells) (Q01727 whole entry): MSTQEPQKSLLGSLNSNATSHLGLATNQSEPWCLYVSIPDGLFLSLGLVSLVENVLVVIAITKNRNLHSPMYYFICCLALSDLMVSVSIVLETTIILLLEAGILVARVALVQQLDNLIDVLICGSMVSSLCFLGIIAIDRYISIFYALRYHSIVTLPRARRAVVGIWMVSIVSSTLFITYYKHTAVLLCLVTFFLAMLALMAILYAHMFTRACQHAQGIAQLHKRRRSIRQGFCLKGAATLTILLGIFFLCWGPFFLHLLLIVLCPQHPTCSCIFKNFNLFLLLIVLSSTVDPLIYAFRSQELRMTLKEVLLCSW

ANP receptor (on ANP …) = molecular target: ANP receptor (on ANP receptor-expressing LLC-PK1 cells); assay: cell-based or functional assay

Row | Binder | EC50 on the production of cAMP (BC16-F1 cells) [1] [nM] | EC50 on the production of cGMP (LLC-PK1 cells) (ANP receptor (on ANP …)) [nM]
1 | B1 | 31.4 | 216
2 | B2 | – | 1430
3 | B3 | 1.2 | –
4 | B4 | 10.4 | 69
5 | B5 | 62.5 | 132
6 | B6 | – | 8.9
7 | B7 | – | 3.3
8 | B8 | – | 86.8
9 | B9 | 28 | –
10 | B10 | 365 | –
